The values that follow come from patent US20250171533A1 (NEXTPOINT THERAPEUTICS, published 2025).

The koff is a measure of how fast the partners let go of each other. What is called EC50 is the concentration giving half of the maximal effect. Read a low EC50 as higher potency in that assay. By Kd is commonly meant the concentration at which binding is half-saturated. By kon is commonly meant a measure of how fast the partners come together.

Assay [1] has as its target T1, KIR3DL3 expressed on cells (human, UniProt Q8N743 26-410).
T1 construct: whole, on cells; One entry for KIR3DL3 on all the cell types; also called NK92MI cells
In words: blocking assay by flow cytometry on 300.19-KIR3DL3 cells; blocked ligand: recombinant biotinylated HHLA2, detected by streptavidin-APC. The protocol:
Recombinant biotinylated HHLA2 at 5 mg/mL was added to the cells and incubated for 30 minutes. The cells were treated with 1:250 of APC-streptavidin for 30 minutes to detect recombinant biotinylated HHLA2 bound to cells. […] NPX267 blocked recombinant HHLA2-Fc from binding to its inhibitory receptor KIR3DL3 in a dose dependent manner.
For orientation: A flow cytometer gives signals particle by particle.

Assay [2] concerns the target T2, recombinant KIR3DL3 protein (human) (human, UniProt Q8N743 26-322, limits assumed).
T2 construct: also called human KIR3DL3; killer cell immunoglobulin like receptor, three Ig domains and long cytoplasmic tail 3
In words: SPR (Biacore); column kd1 (1/s); the drawn table names KIR3DL3 as analyte and NPX267 as ligand, paragraph 256 says the reverse. The protocol: (§1) The monovalent binding affinity of NPX267 to recombinant KIR3DL3 protein was determined by SPR using a Biacore instrument; KIR3DL3 protein was immobilized on a CM5 chip and NPX267 was run as the analyte. […] No off-target binding was found in a screen of greater than 5800 plasma membrane proteins.
On the technique in general: SPR reads the build-up and loss of mass on a sensor chip optically.

In assay [3] the target is T1, KIR3DL3 expressed on cells. The experiment in a line: flow cytometry on primary human NK cells in whole blood, Donor KP63936, GeoMean of anti-human PE secondary; no unit in the table, unit taken from the axis Log [ug/ml]. The protocol: (§2) For primary human NK cells, human whole blood cells were treated with NPX267 at concentrations ranging from […] to […] for 30 minutes (FIG. 3C). Red blood cells were lysed and cells were stained with a cocktail of anti-human CD3, Anti-human CD56 and anti-human IgG4 PE. Flow cytometric analysis of primary antibody binding was detected using an anti-human PE secondary antibody.

The target of assay [4] is T1, KIR3DL3 expressed on cells. The experiment in a line: flow cytometry on 300.19-KIR3DL3 cells, anti-human PE secondary, gMFI. The protocol:
(§3) Flow cytometric analysis of primary antibody binding was detected using an anti-human PE secondary antibody. The mean and standard deviation of duplicate data points are shown. Data performed in duplicate was entered into GraphPad Prism software and the EC₅₀ was determined using a 4-parameter nonlinear regression equation.

Assay [5] deals with T2, recombinant KIR3DL3 protein (human). The experiment in a line: SPR (Biacore), KIR3DL3 protein immobilized on a CM5 chip, NPX267 as analyte; KIR3DL3 immobilized on CM5 chip; NPX267 IgG4 as analyte. The protocol: as §1
Assay [6] has as its target T1, KIR3DL3 expressed on cells. The experiment in a line: flow cytometry on primary human NK cells in whole blood, Donor KP63935, GeoMean of anti-human PE secondary; no unit in the table, unit taken from the axis Log [ug/ml]. The method, then:
as §2

In assay [7] the target is T1, KIR3DL3 expressed on cells. The experiment in a line: flow cytometry on NK92MI cells, anti-human PE secondary, gMFI; no unit beside the number, unit taken from the axis log [ug/mL]. The protocol: as §3
NK92 MI cells were treated with NPX267 at concentrations ranging from […] to 0.0005 mg/mL for 30 minutes (FIG. 3B). Flow cytometric analysis of primary antibody binding was detected using an anti-human PE secondary antibody. The mean and standard deviation of triplicate data points are shown.

For assay [8], the target named is T2, recombinant KIR3DL3 protein (human). The experiment in a line: SPR (Biacore); column ka1 (1/Ms); the drawn table names KIR3DL3 as analyte and NPX267 as ligand, paragraph 256 says the reverse. The method, then:
as §1

Assay [9] addresses T1, KIR3DL3 expressed on cells. The experiment in a line: cell-based or functional assay.
For assay [10], the target named is T1, KIR3DL3 expressed on cells. The experiment in a line: flow cytometry on primary human NK cells in whole blood, Donor KP63901, GeoMean of anti-human PE secondary; no unit in the table, unit taken from the axis Log [ug/ml]. The method, then:
as §2

T1 sequence (Q8N743 26-410): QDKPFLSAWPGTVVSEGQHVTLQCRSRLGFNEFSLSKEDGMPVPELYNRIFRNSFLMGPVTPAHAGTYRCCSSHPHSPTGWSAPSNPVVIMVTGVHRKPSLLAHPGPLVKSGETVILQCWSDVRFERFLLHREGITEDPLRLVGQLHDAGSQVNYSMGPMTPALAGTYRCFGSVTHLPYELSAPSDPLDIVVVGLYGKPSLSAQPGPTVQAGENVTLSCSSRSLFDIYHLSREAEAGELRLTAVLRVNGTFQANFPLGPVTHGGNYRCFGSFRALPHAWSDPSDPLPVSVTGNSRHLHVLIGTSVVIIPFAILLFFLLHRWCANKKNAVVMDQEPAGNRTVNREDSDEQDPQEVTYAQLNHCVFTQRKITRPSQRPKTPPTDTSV
T2 sequence (Q8N743 26-322 limits assumed): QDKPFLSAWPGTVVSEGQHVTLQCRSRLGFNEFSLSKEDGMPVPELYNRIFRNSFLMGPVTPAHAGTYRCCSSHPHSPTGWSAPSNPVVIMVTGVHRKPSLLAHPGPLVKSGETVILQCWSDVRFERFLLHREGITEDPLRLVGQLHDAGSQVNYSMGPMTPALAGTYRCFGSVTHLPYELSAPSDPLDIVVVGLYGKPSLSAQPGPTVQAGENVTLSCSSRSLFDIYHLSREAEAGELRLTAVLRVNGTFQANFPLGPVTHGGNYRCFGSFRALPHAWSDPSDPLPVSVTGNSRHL

B1: NPX267 (Hu26E10z7p7) (antibody, human IgG4 S228P, kappa, V domains shown)
VH: QAQLVQSGAEVKKPGASVKVSCKASGYTFTSYNIHWVRQAPGQGLEWMGYIYPGDAVTNYNQKFKGRVTMTADTSTSTVYMELSSLRSEDTAVYYCARSGNYGNYEGFAYWGQGTLVTVSS
VL: DIQMTQSPSSLSASVGDRVTITCKASQDTQSYLSWFQQKPGKAPKTLIYRANRLVDGVPSRFSGSGSGTDFTLTISSLQPEDFATYYCLQYDEFPYTFGGGTKVEIKR
notes: For staining of tumor infiltrating NK cells an APC conjugate (NPX267-APC) was used; also called humanized version of 26E10
Turning to B1, in [1], the “IC50 (read off the curve)” value was about 0.05 µg/mL. The koff in assay [2] stood at 0.000398 s⁻¹. Besides, the EC50 in assay [3] was 0.098 µg/mL; in [4], 0.0684 µg/mL; in assay [6], 0.0294 µg/mL; in assay [7], 0.131 µg/mL; in assay [10], 0.0298 µg/mL. Also, in [5], the Kd came to 0.679 nM. Also, in assay [8], the kon was 587000 M⁻¹ s⁻¹. The “target cell death (Annexin V), NK92MI effector cells against K562 cells engineered to express HHLA2” value in assay [9] turned out to be 2 fold.
